Data set [1] concerns the target T1, Sll0726 (Synechocystis sp. PCC 6803, UniProt P74643).
T1 construct: gene pgm; recombinant, Strep-tagged, expressed in E. coli Rosetta-gami (DE3), purified
T1 sequence (P74643 1-567): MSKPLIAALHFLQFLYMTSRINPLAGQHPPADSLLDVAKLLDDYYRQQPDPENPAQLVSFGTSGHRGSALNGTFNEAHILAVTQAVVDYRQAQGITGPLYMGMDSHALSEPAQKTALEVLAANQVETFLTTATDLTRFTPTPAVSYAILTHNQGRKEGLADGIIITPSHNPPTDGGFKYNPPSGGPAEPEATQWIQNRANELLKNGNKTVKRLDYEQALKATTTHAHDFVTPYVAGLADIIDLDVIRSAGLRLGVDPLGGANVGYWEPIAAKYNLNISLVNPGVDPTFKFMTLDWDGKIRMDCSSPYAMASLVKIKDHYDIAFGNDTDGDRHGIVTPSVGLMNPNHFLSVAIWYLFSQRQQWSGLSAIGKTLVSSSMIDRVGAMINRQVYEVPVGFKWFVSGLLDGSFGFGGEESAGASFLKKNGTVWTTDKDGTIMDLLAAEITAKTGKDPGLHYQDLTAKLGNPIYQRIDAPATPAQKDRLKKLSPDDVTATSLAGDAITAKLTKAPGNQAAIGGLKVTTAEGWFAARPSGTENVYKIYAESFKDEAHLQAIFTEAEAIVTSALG
Description: G6PDH-coupled PGM assay, NADPH at […] nm. Type of data set: biochemical. As to conditions: inhibitor, 100 μM, varied Glc-1P, without Glc-1,6-BP; 10 mM MgCl2, pH 7.5, 30°C.

Substrate in data set [2]: O=P(O)(O)O[C@H]1O[C@H](CO)[C@@H](O)[C@H](O)[C@H]1O
Description: purified protein. Type of data set: biochemical, Synechocystis sp. PCC 6803. As to conditions: with 60 μM Glc-1,6-BP (activator), 10 mM MgCl2, 150 mM KCl, HEPES-KOH pH 7.5, 30°C.

Substrate in data set [3]: O=P(O)(O)OC[C@H]1O[C@H](OP(=O)(O)O)[C@H](O)[C@@H](O)[C@@H]1O
Description: purified protein. The class given is biochemical, Synechocystis sp. PCC 6803. As to conditions: co-substrate 0.5 mM Frc-6P, 10 mM MgCl2, 150 mM KCl, HEPES-KOH pH 7.5, 30°C, lowest measurable concentration already saturating.

From PMC9426568, “Glucose-1,6-Bisphosphate, a Key Metabolic Regulator, Is Synthesized by a Distinct Family of α-Phosphohexomutases Widely Distributed in Prokaryotes” (mBio, 2022) come the findings set out here.

With `O=P(O)(O)OC[C@H]1OC(O)(COP(=O)(O)O)[C@@H](O)[C@@H]1O` (stereo partly drawn) [Frc-1,6-BP], the “G6PDH-coupled PGM assay, NADPH at 340 nm” value in data set [1] was “effect of different concentrations of Frc-1,6-BP on Sll0726 and observed major inhibition”.

B1: Sll0726 (Synechocystis sp. PCC 6803 substr. Kazusa) (protein)
chain: MSKPLIAALHFLQFLYMTSRINPLAGQHPPADSLLDVAKLLDDYYRQQPDPENPAQLVSFGTSGHRGSALNGTFNEAHILAVTQAVVDYRQAQGITGPLYMGMDSHALSEPAQKTALEVLAANQVETFLTTATDLTRFTPTPAVSYAILTHNQGRKEGLADGIIITPSHNPPTDGGFKYNPPSGGPAEPEATQWIQNRANELLKNGNKTVKRLDYEQALKATTTHAHDFVTPYVAGLADIIDLDVIRSAGLRLGVDPLGGANVGYWEPIAAKYNLNISLVNPGVDPTFKFMTLDWDGKIRMDCSSPYAMASLVKIKDHYDIAFGNDTDGDRHGIVTPSVGLMNPNHFLSVAIWYLFSQRQQWSGLSAIGKTLVSSSMIDRVGAMINRQVYEVPVGFKWFVSGLLDGSFGFGGEESAGASFLKKNGTVWTTDKDGTIMDLLAAEITAKTGKDPGLHYQDLTAKLGNPIYQRIDAPATPAQKDRLKKLSPDDVTATSLAGDAITAKLTKAPGNQAAIGGLKVTTAEGWFAARPSGTENVYKIYAESFKDEAHLQAIFTEAEAIVTSALG
notes: recombinant, Strep-tagged, expressed in E. coli Rosetta-gami (DE3), purified
Broadly, the Km is the concentration of substrate that gives half-maximal velocity. As a reminder, the kcat is the maximal rate divided by the concentration of active sites. By kcat/Km is commonly meant the turnover number divided by the Michaelis constant. Turning to B1, in data set [2], the Km turned out to be 190 ± 40 µM, the kcat came to 415 ± 30.6 s⁻¹ and the kcat/Km was determined as 3.04e+06 M⁻¹ s⁻¹.

B2: Slr1334 (Synechocystis sp. PCC 6803 substr. Kazusa) (protein)
chain: MVYTPAPIKFGTDGWRGVIAAEFTFERVVLVAAAAAQVLAAEFGSSGREHRLIVGYDRRFMAEQFALLVAQTVQELGFEVWLSESYAPTPAFSWAAHHENALGALVLTASHNPANYLGLKVKGAFGGSVGSDVTEKIEAQLQNSLPQPQAGGSLQYFDPWPSYCQGLQAKVNVQPIREAVQQGKLRVFADVMHGAAASGLERLLGCPIDEINGDRDPLFGGASPEPLPKYVPKLLAALQTAAKAGGPELRVGLIFDGDADRIAAVDGQGNFLSSQGLIPILIYHLATQKGLQGEIVKTVSGSDLIPKLAELYGIPLTETAIGYKYIADRMLTSPVLIGGEESGGIGYGGHIPERDALLSALYVLETVVQSQQDISEQYGRLQEKVCFVSEYDRIDLPLASMDVRTALVQTLNENPLTAIAGEQVTDLLTTDGYKFRMAGGGWLLIRFSGTEPLLRLYCEAPTSSRVQTVLHWAKDWANGVTPAKPAQSSH
notes: recombinant, expressed in E. coli Rosetta-gami (DE3), purified
In the case of B2, in data set [3], the kcat amounted to 1.2 ± 0.03 s⁻¹ and the catalytic efficiency (kcat/Km) is 600000 M⁻¹ s⁻¹. Further, in data set [2], the Km was 90 ± 20 µM, the kcat stood at 14.4 ± 0.7 s⁻¹ and the kcat/Km was found to be 158000 M⁻¹ s⁻¹.
